This is an account of results in article PMC2881571 (Molecular microbiology, 2009).

Series [1] has as its target T1, 6His-OspR (Pseudomonas aeruginosa MPAO1, UniProt Q9I018 1-163).
T1 sequence: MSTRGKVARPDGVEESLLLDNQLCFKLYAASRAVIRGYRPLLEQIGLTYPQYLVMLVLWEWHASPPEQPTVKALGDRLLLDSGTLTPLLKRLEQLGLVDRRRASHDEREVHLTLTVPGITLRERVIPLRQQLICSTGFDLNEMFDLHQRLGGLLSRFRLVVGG
Put plainly: EMSA. In general terms: A gel shift assay detects complexes by their altered migration in electrophoresis.

The series “cross-linking” deals with the molecule itself. Description: cross-linking.
In a further series the target is T2, 6His-OspR C24S (Pseudomonas aeruginosa MPAO1, UniProt Q9I018 1-163, C24S).
T2 sequence: T1 sequence with C24S
Description: EMSA.

Series [2] concerns the target T1, 6His-OspR. Put plainly: EMSA. The source holds these as a separate data set.

Changes are numbered by the printed parent chain. Names may count otherwise. Read-outs that look alike come from different tables or passages of the source.

B1: B2d (B2 lacking AATTnAATT, 34 bp) (dsDNA)
DNA 1: TTCAATCAAGTTGTGTGCGCGAGCTACTTTATTT
DNA 2: AAATAAAGTAGCTCGCGCACACAACTTGATTGAA
Consider B1, for which, in the series with 6His-OspR [1], the binding result was “no binding”.

B2: hmgA-p (PA2009-PA2010 intergenic, 70 bp) (dsDNA)
DNA 1: TGGCACGCTGGCTGCGTTATTTTTATCGTAATTCAATTACGCATAACGTAATTTGAGTGGAAGGCAGCGT
DNA 2: ACGCTGCCTTCCACTCAAATTACGTTATGCGTAATTGAATTACGATAAAAATAACGCAGCCAGCGTGCCA
Take B2: the binding result with 6His-OspR [1] is “binds”.

B3: 6His-OspR C24S (natural protein, Pseudomonas aeruginosa MPAO1, UniProt Q9I018 1-163, looked up)
chain: T1 sequence with C24S
Turning to B3, the binding result in “cross-linking” is recorded as “binds”.

B4: B2 (PA2826 promoter, 43 bp) (dsDNA)
DNA 1: TTCAATCAAGTTGTGTGCAATTGAATTGCGAGCTACTTTATTT
DNA 2: AAATAAAGTAGCTCGCAATTCAATTGCACACAACTTGATTGAA
In the case of B4, the binding result with 6His-OspR C24S and with 6His-OspR [2] was “binds” throughout.

B5: PA1897-p (70 bp) (dsDNA)
DNA 1: GGCAGGTTGTCCCTGCCGGGCTGTGACAATTTAATTCGACCAGGCATTTCATTGTCCGTGCCGATTTTCA
DNA 2: TGAAAATCGGCACGGACAATGAAATGCCTGGTCGAATTAAATTGTCACAGCCCGGCAGGGACAACCTGCC
As to B5, in the series with 6His-OspR [1], the binding result was “binds”.
